Data: the Immune Epitope Database (IEDB)
One block for each sequence: values may come before it.

Legend:
HLA-A*24:03 [1] = experiment: IEDB peptide-MHC binding, purified MHC/direct/fluorescence; filed as Kd, often an IC50 or EC50 that approximates it; ≥ and ≤ were set here for values at or beyond the usual limits of such assays; details: source organism: Bacillus anthracis
HLA-C*04:01 = experiment: as above
HLA-C*03:03 = experiment: as above
HLA-A*02:01 = experiment: IEDB peptide-MHC binding, purified MHC/competitive/fluorescence; filed as Kd, often an IC50 or EC50 that approximates it; ≥ and ≤ were set here for values at or beyond the usual limits of such assays
HLA-A*02:03 = experiment: as above
HLA-A*02:11 = experiment: as above
HLA-A*02:12 = experiment: as above
HLA-A*02:16 = experiment: as above
HLA-A*02:19 = experiment: as above
HLA-A*03:01 = experiment: as above
HLA-A*24:03 [2] = experiment: as above
HLA-A*26:01 = experiment: as above
HLA-A*29:02 = experiment: as above
HLA-A*68:02 = experiment: as above
HLA-A*69:01 = experiment: as above
HLA-B*15:01 = experiment: as above
HLA-B*15:17 = experiment: as above
HLA-B*18:01 = experiment: as above
HLA-B*27:03 = experiment: as above
HLA-B*39:01 = experiment: as above
HLA-B*46:01 = experiment: as above
HLA-B*51:01 = experiment: as above
HLA-B*57:01 = experiment: as above
HLA-A*02:06 = experiment: as above; details: source organism: Brucella suis 1330
HLA-A*32:07 = experiment: as above
HLA-B*15:42 = experiment: as above
HLA-B*27:20 = experiment: as above
HLA-B*40:13 = experiment: as above
HLA-B*45:06 = experiment: as above
HLA-B*83:01 = experiment: as above
HLA-C*06:02 [3] = experiment: IEDB peptide-MHC binding, purified MHC/direct/fluorescence; filed as Kd, often an IC50 or EC50 that approximates it; ≥ and ≤ were set here for values at or beyond the usual limits of such assays; details: source organism: SARS-CoV1
HLA-A*23:01 = experiment: IEDB peptide-MHC binding, purified MHC/competitive/fluorescence; filed as Kd, often an IC50 or EC50 that approximates it; ≥ and ≤ were set here for values at or beyond the usual limits of such assays
HLA-A*31:01 = experiment: as above; details: source organism: Escherichia coli E110019
HLA-C*12:03 = experiment: IEDB peptide-MHC binding, purified MHC/direct/fluorescence; filed as Kd, often an IC50 or EC50 that approximates it; ≥ and ≤ were set here for values at or beyond the usual limits of such assays
HLA-C*14:02 = experiment: IEDB peptide-MHC binding, purified MHC/competitive/fluorescence; filed as Kd, often an IC50 or EC50 that approximates it; ≥ and ≤ were set here for values at or beyond the usual limits of such assays
HLA-C*05:01 = experiment: IEDB peptide-MHC binding, purified MHC/direct/fluorescence; filed as Kd, often an IC50 or EC50 that approximates it; ≥ and ≤ were set here for values at or beyond the usual limits of such assays
HLA-B*35:01 = experiment: IEDB peptide-MHC binding, purified MHC/competitive/fluorescence; filed as Kd, often an IC50 or EC50 that approximates it; ≥ and ≤ were set here for values at or beyond the usual limits of such assays; details: source organism: Yersinia pestis Nepal516
HLA-C*07:02 = experiment: IEDB peptide-MHC binding, purified MHC/direct/fluorescence; filed as Kd, often an IC50 or EC50 that approximates it; ≥ and ≤ were set here for values at or beyond the usual limits of such assays; details: source organism: Yersinia pestis CO92
HLA-C*08:02 = experiment: as above; details: source organism: Yersinia pestis CO92
HLA-A*32:15 = experiment: IEDB peptide-MHC binding, purified MHC/competitive/fluorescence; filed as Kd, often an IC50 or EC50 that approximates it; ≥ and ≤ were set here for values at or beyond the usual limits of such assays; details: source organism: Yersinia pestis CO92
HLA-A*68:23 = experiment: as above; details: source organism: Yersinia pestis CO92
HLA-C*06:02 [4] = experiment: as above; details: source organism: Yersinia pestis CO92
[5] = source organism: Giardia lamblia ATCC 50803
[6] = source organism: Brucella suis 1330
[7] = source organism: Escherichia coli E110019
[8] = source organism: Mycobacterium tuberculosis F11
[9] = source organism: Vibrio cholerae MAK 757
[10] = source organism: Yersinia pestis Nepal516
[11] = source organism: Yersinia pestis CO92
[12] = source organism: Vaccinia virus

Sequence: AYPKWKFFL
Kd (HLA-A*24:03 [1]): 0.0017 µM
Kd (HLA-C*04:01; source organism: Bacillus anthracis str. CDC 684): ≥ 20 µM

Sequence: RLDPRLAPV
Kd (HLA-C*03:03; source organism: Mycobacterium tuberculosis variant bovis BCG str. Pasteur 1173P2): ≥ 20 µM

Sequence: ALGGSCHTT
Kd (HLA-A*02:01; [5]): ≥ 20 µM
Kd (HLA-A*02:03; [5]): ≥ 20 µM
Kd (HLA-A*02:11; [5]): ≥ 20 µM
Kd (HLA-A*02:12; [5]): ≥ 20 µM
Kd (HLA-A*02:16; [5]): ≥ 20 µM
Kd (HLA-A*02:19; [5]): 0.555 µM
Kd (HLA-A*03:01; [5]): ≥ 20 µM
Kd (HLA-A*24:03 [2]; [5]): ≥ 20 µM
Kd (HLA-A*26:01; [5]): ≥ 20 µM
Kd (HLA-A*29:02; [5]): ≥ 20 µM
Kd (HLA-A*68:02; [5]): ≥ 20 µM
Kd (HLA-A*69:01; [5]): ≥ 20 µM
Kd (HLA-B*15:01; [5]): ≥ 20 µM
Kd (HLA-B*15:17; [5]): ≥ 20 µM
Kd (HLA-B*18:01; [5]): ≥ 20 µM
Kd (HLA-B*27:03; [5]): ≥ 20 µM
Kd (HLA-B*39:01; [5]): ≥ 20 µM
Kd (HLA-B*46:01; [5]): ≥ 20 µM
Kd (HLA-B*51:01; [5]): ≥ 20 µM
Kd (HLA-B*57:01; [5]): ≥ 20 µM

Sequence: RQNAPFEPI
Kd (HLA-A*02:01; [6]): 0.0834 µM
Kd (HLA-A*02:06): 0.0012 µM
Kd (HLA-A*32:07; [6]): 0.0119 µM
Kd (HLA-B*15:42; [6]): ≥ 5 µM
Kd (HLA-B*27:20; [6]): 0.0011 µM
Kd (HLA-B*40:13; [6]): 0.0536 µM
Kd (HLA-B*45:06; [6]): ≥ 5 µM
Kd (HLA-B*83:01; [6]): ≥ 5 µM

Sequence: SYCNGVREL
Kd (HLA-C*04:01; source organism: SARS-CoV1): ≥ 20 µM
Kd (HLA-C*06:02 [3]): 0.133 µM

Kd (HLA-A*02:01; [7]): ≥ 20 µM
Kd (HLA-A*02:03; [7]): ≥ 20 µM
Kd (HLA-A*02:11; [7]): ≥ 20 µM
Kd (HLA-A*02:12; [7]): ≥ 20 µM
Kd (HLA-A*02:16; [7]): ≥ 20 µM
Kd (HLA-A*02:19; [7]): ≥ 20 µM
Kd (HLA-A*23:01; [7]): ≥ 20 µM
Kd (HLA-A*24:03 [2]; [7]): ≥ 20 µM
Kd (HLA-A*26:01; [7]): ≥ 20 µM
Kd (HLA-A*31:01): 0.0027 µM
Kd (HLA-A*68:02; [7]): ≥ 20 µM
Kd (HLA-A*69:01; [7]): ≥ 20 µM
Kd (HLA-B*15:01; [7]): ≥ 20 µM
Kd (HLA-B*18:01; [7]): ≥ 20 µM
Kd (HLA-B*39:01; [7]): ≥ 20 µM
Kd (HLA-B*46:01; [7]): ≥ 20 µM
Kd (HLA-B*51:01; [7]): ≥ 20 µM
Kd (HLA-B*57:01; [7]): ≥ 20 µM
Sequence: RAFWGQVQK

Sequence: FVAATGRPL
Kd (HLA-C*03:03; [8]): ≤ 0.001 µM
Kd (HLA-C*12:03; [8]): 0.095 µM
Kd (HLA-B*15:42; [8]): ≥ 5 µM
Kd (HLA-B*45:06; [8]): ≥ 5 µM
Kd (HLA-C*14:02; [8]): 0.0302 µM

Kd (HLA-A*02:01; source organism: Homo sapiens): 0.0306 µM
Kd (HLA-A*02:03; source organism: Homo sapiens): ≥ 20 µM
Kd (HLA-A*02:12; source organism: Homo sapiens): 0.17 µM
Kd (HLA-A*02:16; source organism: Homo sapiens): ≥ 20 µM
Kd (HLA-A*02:19; source organism: Homo sapiens): ≥ 20 µM
Kd (HLA-A*03:01; source organism: Homo sapiens): ≥ 20 µM
Kd (HLA-A*23:01; source organism: Homo sapiens): ≥ 20 µM
Kd (HLA-A*24:03 [2]; source organism: Homo sapiens): ≥ 20 µM
Kd (HLA-A*26:01; source organism: Homo sapiens): ≥ 20 µM
Kd (HLA-A*29:02; source organism: Homo sapiens): ≥ 20 µM
Kd (HLA-A*69:01; source organism: Homo sapiens): ≥ 20 µM
Kd (HLA-B*15:17; source organism: Homo sapiens): ≥ 20 µM
Kd (HLA-B*18:01; source organism: Homo sapiens): ≥ 20 µM
Kd (HLA-B*27:03; source organism: Homo sapiens): ≥ 20 µM
Kd (HLA-B*46:01; source organism: Homo sapiens): ≥ 20 µM
Kd (HLA-B*51:01; source organism: Homo sapiens): ≥ 20 µM
Kd (HLA-B*57:01; source organism: Homo sapiens): ≥ 20 µM
Sequence: SQLPPACPV

Sequence: IAAPNMIAV
Kd (HLA-C*03:03; [9]): ≤ 0.001 µM
Kd (HLA-C*05:01; [9]): 2.17 µM
Kd (HLA-C*12:03; [9]): 0.002 µM
Kd (HLA-B*46:01; [9]): 0.578 µM

Sequence: MVLSGTLAY
Kd (HLA-A*26:01; [10]): 0.506 µM
Kd (HLA-B*15:42; [10]): ≥ 5 µM
Kd (HLA-B*35:01): 0.0012 µM
Kd (HLA-B*45:06; [10]): ≥ 5 µM
Kd (HLA-B*83:01; [10]): ≥ 5 µM
Kd (HLA-C*14:02; [10]): 0.123 µM

Sequence: YSFSRAYTL
Kd (HLA-C*05:01; [11]): ≥ 20 µM
Kd (HLA-C*07:02): 0.347 µM
Kd (HLA-C*08:02): ≥ 20 µM
Kd (HLA-A*32:07; [11]): 0.165 µM
Kd (HLA-A*32:15): 0.0237 µM
Kd (HLA-A*68:23): 0.0093 µM
Kd (HLA-B*15:42; [11]): ≥ 5 µM
Kd (HLA-B*27:20; [11]): 0.0315 µM
Kd (HLA-B*39:01; [11]): 0.0039 µM
Kd (HLA-B*40:13; [11]): 0.0063 µM
Kd (HLA-B*45:06; [11]): ≥ 5 µM
Kd (HLA-B*83:01; [11]): ≥ 5 µM
Kd (HLA-C*06:02 [4]): 0.0478 µM
Kd (HLA-C*14:02; [11]): 0.125 µM

Sequence: FVDVIIIKV
Kd (HLA-C*04:01; [12]): ≥ 20 µM
Kd (HLA-C*05:01; [12]): ≥ 20 µM
